This data set in a line: label from the status in PepcDB records.
On to “MENQTPSQALISKGWKYFIIVGVIVALAGLGATSLPVMAGVTISTIIGTLLLITGLVQVYHTFRIHSWKEKLWYVLSALFYIVGALFILFKPLEGLMTITTIMIVIMIFNGLTRMIFGFTNRSLPGCGMVILSGLLSVVIGGYFFSLFDNPEFSLSLLGTFVGVSLIFEGMSFLFIGLRLRNASKA”, for which the protein production result is recorded as “failed”. Turning to “MYPDLVHLGGADKYFEEILEIVNKIKLFGDFSNEEVRYLCSYMQCYAAPRDCQLLTEGDPGDYLLLILTGEVNVIKDIPNKGIQTIAKVGAGAIIGEMSMIDGMPRSASCVASLPTDFAVLSRDALYQLLANMPKLGNKVLIRLLQLLTARFRESYDRILPKTLGELI”, the protein production entry is recorded as “not failed”. With “GQYALTNGDPLNGHCYLSGYISLLLRAEPYPTSRYGSQCMQPNNIMGIENICELAARLLFSAVEWARNIPFFPDLQITDQVSLLRLTWSELFVLNAAQCSMPLHVAPLLAAAGLHASPMSADRVVAFMDHIRIFQEQVEKLKALHVDSAEYSCLKAIVLFTSDACGLSDAAHIESLQEKSQCALEEYVRSQYPNQPSRFGKLLLRLPSLRTVSSSVIEQLFFVRLVGKTPIETLIRDMLLSGSSFNWPYMSIQCS” the entry was “failed”; with “MQKKQVIAVLVAVVGIGIVFSLPKVLVDNEKESVEGAEVTVAHEDSLSEVGKLMAEKHTHKPSDSEQKKLQDFTKNYYSISDKEKKRIFADSILGYYNKFHKYDSVAKYSGEIAMLQPNEKNLLSAADAYMQASDLVSVNEKSAYMDKSRLYYEKALDINASNLDTKSKLAMTYVTTSNPMTGIRILQEVVKEDPRNETAIFNLGYLSMQSRQYNKAVDRFKSLIEINPAHASGTFYLGLSYLELGNKGKANQYFMKAKGLDSDPEFQAIIDSYLKESN”, “failed”; with “TGFVGEMYGTGDILRSVSIPSETDKPIIVELAVAAMEELVRMAQTGDPLWLSTDNSVEILNEEEYFRTFPRGIGPKPLGLRSEASRQSAVVIMNHINLVEILMDVNQWSCVFSGIVSRALTLEVLSTGVAGNYNGALQVMTAEFQVPSPLVPTRENYFVRYCKQHSDGSWAVVDVSLDSLRPSTPILRTRRRPSGCLIQELPNGYSKVTWIEHMEVDDRSVHNMYKPLVQSGLAFGAKRWVATLERQCERLASSMASNIPGDLSVITSPEGRKSMLKLAERMVMSFCSGVGASTAHAWTTMSTTGSDDVRVMTRKSMV”, “failed”. Regarding “MTALKICLIGGSGFIGRHLAAQLASRGHRITIASRRTGLPDFRVLPSAELVSADIHDPGQLAGLIAGHDAVVSMVGILHGSRAQFEKAHAQLPEKIVDACRRQGVRRLVHVSALGAAQDAPSDYQQTKALGELAVESSGLDWTILRPSVVFGHGDAFLNMFAGLQKRLPVLPLAGAGCKMAPVWVEDVARAVCECLARKETEGRKLDLAGPETYTLAQLARLAGRASGHPRPVFGLPYGLAMLQAALMEWLPGPTLMSRDNVRSLQWDNVSDQPFPSALLGFEPAALSALAPGWLAGRDRNDTASRYRAKAAR”, the protein production entry is “failed”.

For “AHARLQITQFAMDSVGIGIQWIDPDSGRFVYANRHTAELLGYSEQEMLTLTVSDIDPAFPLPAFHATMARLRQSRYTQFQSQIETRGGVPIPVEITLYYMEGDADAPARVIAFLTDISRRKETEQTLVQAKEAAEKANLAKTAFVANMSHEIRTPMNAILGMV”, the protein production result is “failed”.

With “RYENILLPTDGSEGADLAIEWGITLAEIYDATVHTLYSVDTSRFGGVEGSAEIHDALEETGQEALETVHERARDADVSIAGNIASGPAARAILSYSEEHDIDLIAMGTHGRSGLTRYLTGSVTETVVRNAAVPVCCVPMQ”, the protein production entry is “failed”. As for “MDEILTNTATPEVGGVAQLSPSAARTKARIALAVMLVPLFGTLEAIRLWFTGQVHALDFILFAVFYAVQMFGVSMGYHRYLAHRAFKTSRLMSSLMLIAGCMAAQGPILFWVTTHRRHHTYSDQHGDPHSPNLMGQSRWQRAKGLWHAHMPWMLAPDMSSWNFFAPDILRDRRLFFYNQTYLFWVALGVILPGVIGGLVSQSWSGAWSGLIFGGLARIFVANQAAWCVGSICHRYGARPFVTHDQSTNNWIVAFLTFGEGLQNNHHAFPAWYRHGVHWWEPDLSGWTLALMGKLRLVSDLRSPSQAMIDKVRKRQASS”, the protein production entry is on record as “failed”. For “MIMHIPKSTYYHKWFIGATLVVPVLPLAAQTSPNLVFIMADQYRGDALGCLGKEPVKTPCLDHLASEGVLFTNAVSSYPVSSPARAMLMTGMYPLHNKVTGNCNSQTAPYGVELPQEARCWSDVLKDMNYRTGYIGKWHLDSPYKPYVDTYNNRGKVAWNEWCPPERRHGFEYWTAYGTYDYHLKPMYWDTTAPRDSFYYVNQWGPAYEADKAIEYIQTQKENKQPFALVVSMNPPHTGYELVPDKYKALYKDIDVEALCAHRPDIPAKGTEMGNYFRNNIRNYYACITGVDEQVGRIIETLKSNGLFENTIIVFTSDHGICMGAHNNAGKDIFYEEAMRIPMIISWPAKIKPRKDDHLMIAFADLYPSLLSLMGFRKEIPETVQTFDLSRHILGKSKKEVVQPYYYVQFDNHATGYRGLRTSTHTFAVHATNGKIDETVLFDRTKDPYQMDNIAGQSPRLVRQFNKQLKAWLLHTNDSFAHYLETVTKLEHHHHHH”, the protein production result is recorded as “not failed”. Consider “MQGGMMKQLVVAGFFLLLLTSPLSALDVDTYRSSQKQFNTEDKAEQGDAQAQFELGLKYEKGDGVNKDLKKAIYWYQKAADQGQAEAQNNLGVLYLKGEGVPQNSQQAMYWFKKASEQGLAIGQNNIGILYENGLGVKKDPGQAFIWYQKAAEGGNSDGQYNLAVMYMYGNGIPKDIKKAIHWYIKAAEQGDLDAQNNLGVLYERGEEVPRDLKAAISWYTRAANEGSLIAQTNLGVLYMTGDPSIQDGKKAIYWYEKAAAQGGEKAQNNLGYIYEQGIGTEKDMKKAIYWYEKAAENGFTLAQNNLGVLYSNDGELQDYKKAYLWFKKAADQGFAEAQNNLGLMYMKGNGLSVNYHEAVLWYKRAAEQGLPLAQHNLAIMYMKGLGIKKDNKLAIKWYQKAAEKGLDLAQNNLAVMYIRGEGVKRDFKKAMYWYQKAAEQGLDLAQINLGIMYLDGMGVNKDFAKAKYWIGKAKDSGSQDALTIWNKNKLWKYQ”, for which the protein production result is listed as “failed”.

Regarding “MWPFRKEQERGGWLIGWNPHGLLVIVVAVVHDPRVENATAALNKLKESEGDIRATAHRKQHKDVPSATSLLILGWMHSKQATLDKSEYADAWVRSQHSRAELWLELNEGPLLHQLYCCGSPVQPCHLHVLRSDPTVSYAVTSTAFSAVARHDRGDLVKLVEGKMQPICVEGANSTLEGVLLPSHMVHSAGPRTKMRRMVGSDPLTQDEEEKQEGAKQRTEDDRVSVGSSGSGEGSTESQSVRGSETPRFGGELHPRLDFPTSTDYGELSSLLRASAYGKILRELCENKVSNATDGTAATARLCAYWKNCGNRFTGFLTKILVVFHLVLKWPGNVSYTAALLEFRLRMVIHWLLLLRGDTRVCCLHPVLPHIQHNDPALRRFCVVDFLVRFAVDTICGMLLSLLLSHGSGLLVTKAVSWCRWLLYDLHMEYMDWFEGWPAGLKMNGDLSMTLSCIAKAVLEASWASVEDLSNVGLFYKLLIFVAPLGASCAFAFVADLCLIASLHLYLVFHSVSLPYRFARFMLRNLFLQFQGKKHNPLRHRTDTYDFPVEQTLVATVIFTIIVFLLPTLAVYHVYFALICIAVWLLQGALLVAAHLTLYLPLYPLFYWALYRRQWPGGVALTGPKVLSTPQHSRALNPFARGSLTVEFGVVSKPLELRVLLADFLLVAHVVGRLHPFDMIVAVFKVRRWERTNPGKCLVPPLPADIMPLTGMTLPKTAVA”, the protein production entry is listed as “failed”.

“MLGLGVDRLQADINRLLASLFHQGVLDEQFLQLQQLQDETSPNFVYDVINIYFDESEKLLRNLRLLLMDREFSDYKKIGLHLNQLVGSSSSIGARRVRNVCVAFRSASELSNRPGCLRGLEVVEHEYHYLKNMMHELFQWLQLEQQRILAAGVRYPM”: the protein production entry is given as “failed”. Turning to “MSERVCAVIVTYNRKALLRECLKAVLSQTRPPDHVLVVDNASTDGTPEMLQEEFPQVEVLRLPENQGGAGGFHEGMKRAYEQGVDWLWLMDDDTIPKAKALEALLEAARLPLDPRPRVLASRQLLPNGLPHPTTAFVNPTDPRHPFLWLRLRPRYRPIRWALFTSVLLHRSLVEEHGLPHKAFFIWEDDLEYTARALRRGLGLQVRDSEVIHKSASKPYISATTGENRLFYGVRNRIWVLRSPAFGPLGKAFLALQLLFGLLTYLAFHPSQKSLQEIGRALRAGLTTSPCLEHHHHHH”, the protein production result was “failed”. For the sequence “MNKFLVSLFLPLVAFANSSEAAANANLFGAFTLIPPLVAIALAFITKDVILSLFTGVLSGTFLLSLSANIFKAQHLTFVNYYNTTVESFSKIISYILGSTSDPVNAGIILQILCIGGLVALITKMGGAKAVALKFAKRAKSAVSAQVNTWFLGLLIFFDDYANLLIVGPIMRPLADKFKISREKFAFIIDSTAAPVAGIAVISTWIGLEVSLIKTAYEHIGISNISAFGIFVETIPYRFYNIFMLFFVVMTAIMRREFGSMYKAEVRARTTGQIAPLPKSGTLDTTELEDQFLAPKEGIKIRAFDAIVPIFTLIILAILGFYFNGLSTLEGEELAKASANPLSFETFRAAFGNADSSVVLFQAALFAAIVAIFIGVRRKIFNLKEAVETWIYGWKTMIFTIVLLLFAWSLSSIVKDLGTSLFITSLLADKLPEFILPATIFAFASAISFAIGTSYGTMGILMPLAVPLAHEIAKINGMDANAMHHYMVINISCVLTGAIFGNHCSPISDNVILSSMSAKCDHMEHVRTQIPYALFICGISLIAGYIPVSLGLSVWFVLPLNFILIALLLRLIGKKVP”, the protein production result was “failed”.

Regarding “MKFVHSETHRRHDPQFFIVRGQITRSTEQPERADRLLAAAQRRGHERVEARDFGEAILAEVHCPRYLDFLKNGYAQWRALPGASQEITPHVHPPREESGYPVSIIGRAGFHIADTSSPMGPHTWEAALAASHSACTAAQLVIEGAPAAYSLSRPPGHHATRDRAGGFCFLNHTAVAAQWLRHHVARVAILDVDVHHGNGTQDIFYERDDVLHVSLHADPAYFYPFFTGYAQETGRGIGAGCNLNLPLPIGTDDEAFLAALRIACRRVLDFKPDVVVVALGLDTYEGDPLNAFRITTPGFARIGQAIAGLALPTVLVQEGGYLSDELGENLATFLDGFCQHHRPTATLR”, the protein production entry is listed as “failed”. To “MSKNDKPLVSIGIPTYNRAESLKRAINSAVNQTYTNLEIIISDNCSIDETQQLCEELCKLDSRITYIRQAKNFGATNNFSFVLKKATGEYFMWLADDDWISENYIYDCQFFLQNNHQYLLCSGIAKYYLGDDIRMGENICLEENSPIERVKEYFNKVQDNGIFYGLYRKEAVLKLRIPSCFGGDWVFIACILLLGKATTLNTCVIHRVFQEKSTEDYAKEINSKYVLEKSYPYAFICFHFFSEIERTLILQNILTKQQKILLFLDILLTLMRRFGHLYSIEYGWLNIFCIRKKLISLLKIIIRNFRQSCLYFIDSLRTFIYNLKYTPQMYQLYASSKQKNSDLKKLAFFSPVKPIKSGISDYSEELIRFLCKKYQIFVFIDDSYTEKQCPNIENTFYLNHRLFPITSKILGIKKIVYQIGNNYYHNYMFKYINKNHGIVVLHDGIHMSGNVLQQPERHKIVVHSLSASTQVKSKYPNLSVNVISLLMSLPEENLKQDKNSLRHELNIDINTFVFGVFGIISEPKMVYELLLAFCHSFVQNENVAFLMVGYEIADSRVLNFLRANEDDKRLVCKLGVSMEDLYKFIKVTDACFNLRSTSRGETSSSLLRVMSCGIPVIASDIDSFSELPSDVLLKVSQNLSQDELSSILKKIYNEKDKLKEIGKKGKSYINSFHSPSKISDIYSTLIEIE” belongs “failed”; to “ELREARLNAFFSGAPVGMSILDNQLRFVQINELIAHIHGKPAQEHIGKTLEEIAPRIAPLVTPLCQKVLLTGQPILNVELSLPAVNQADSLRHFLVSYFPIPGEGNQLSGVGKVIVEISDVYDELRLRKRAEEALKESI”, “not failed”.

Values taken from a protein production outcome set (Wang et al. 2014).
